According to paper PMC4949553:
Numbering of substitutions follows the chain as printed. Numbers in names are those of the source.

What was measured:
[1] = non-denaturing PAGE and western blot, COS-7; conditions: glycan lost
[2] = western densitometry, insoluble fraction, MG132 treatment; conditions: glycan lost; control: G392E NS
[3] = western blot, soluble plus insoluble intracellular fractions; conditions: glycan lost; control: G392E NS
[4] = polymer sandwich ELISA of cell lysates; conditions: glycan lost
[5] = SDS/PAGE western blot densitometry of insoluble fraction; conditions: glycan lost; control: wild type NS
[6] = 35S pulse-chase, total intracellular NS up to 24 h; conditions: glycan lost; control: G392E NS

B1: G392E neuroserpin (G392E NS): G392E/N321A (protein)
parent chain: MAFLGLFSLLVLQSMATGATFPEEAIADLSVNMYNRLRATGEDENILFSPLSIALAMGMMELGAQGSTQKEIRHSMGYDSLKNGEEFSFLKEFSNMVTAKESQYVMKIANSLFVQNGFHVNEEFLQMMKKYFNAAVNHVDFSQNVAVANYINKWVENNTNNLVKDLVSPRDFDAATYLALINAVYFKGNWKSQFRPENTRTFSFTKDDESEVQIPMMYQQGEFYYGEFSDGSNEAGGIYQVLEIPYEGDEISMMLVLSRQEVPLATLEPLVKAQLVEEWANSVKKQKVEVYLPRFTVEQEIDLKDVLKALGITEIFIKDANLTGLSDNKEIFLSKAIHKSFLEVNEEGSEAAAVSGMIAISRMAVLYPQVIVDHPFFFLIRNRRTGTILFMERVMHPETMNTSGHDFEEL
- oligomerisation ([1]; control: G392E NS): increases
- other: insoluble NS accumulating under proteasome inhibition [2]: increases
- localisation_or_trafficking [3]: increases
- oligomerisation ([4]; control: G392E NS): increases

B2: neuroserpin (NS), wild type: N157A/N321A (protein)
parent chain: B1 parent chain with E392G
- other: amount in insoluble intracellular fraction [5]: increases
- oligomerisation ([1]; control: wild type NS): increases
- oligomerisation ([4]; control: wild type NS): increases

B3: neuroserpin (NS), wild type: N321A (protein)
parent chain: B1 parent chain with E392G
- oligomerisation ([1]; control: wild type NS): increases
- oligomerisation ([4]; control: wild type NS): increases

B4: neuroserpin (NS), wild type: N157A (protein)
parent chain: B1 parent chain with E392G
- oligomerisation ([1]; control: wild type NS): increases
- oligomerisation ([4]; control: wild type NS): increases

B5: G392E neuroserpin (G392E NS): G392E/N401A (protein)
parent chain: B1 parent chain
- degradation_or_half_life [6]: no change
- oligomerisation ([1]; control: G392E NS): increases
- other: insoluble NS accumulating under proteasome inhibition [2]: increases
- localisation_or_trafficking [3]: increases
- oligomerisation ([4]; control: G392E NS): increases

B6: G392E neuroserpin (G392E NS): G392E/N157A (protein)
parent chain: B1 parent chain
- oligomerisation ([1]; control: G392E NS): increases
- localisation_or_trafficking [3]: increases
